According to US6420522 (VERTEX PHARMACEUTICALS, dated 2002):
Where two headings read alike, the source gives them in different places. Each block holds one molecule with its values, some of them ahead of it. Starred links: 1 amine or outer side, 2 acyl side, 3 side chain; linkers in the order of their positions; H or OH if unused. Non-standard residues stand in square brackets, D forms with d. No end group written: not given here. *: point of attachment. Asp‑al = Asp with the carboxyl reduced to aldehyde (3-amino-4-oxobutanoic acid), O=C[C@H](CC(=O)[*:3])N[*:1]; benzoxazol‑2‑yl ketone = Asp carboxyl replaced by 2-benzoxazolyl ketone, c1ccc2oc(*)nc2c1; Pro(4R-allyloxy) = 4(R)-allyloxyproline, C=CCO[C@@H]1C[C@@H](C(=O)[*:2])N([*:1])C1; X3 = (2,6-dichlorophenylmethyloxy)methyl ketone, Clc1cccc(Cl)c1COC*; X1 = 7‑methoxybenzoxazol‑2‑yl ketone, COc1cccc2nc(*)oc12; X2 = 4‑methoxybenzoxazol‑2‑yl ketone, COc1cccc2oc(*)nc12; X4 = (2-chlorobenzyloxy)methyl ketone, Clc1ccccc1COC*; Pro(4-benzyloxy) = 4-benzyloxyproline; Pro(4-phenoxy) = 4-phenoxyproline; Hyp = O=C(O)[C@@H]1C[C@@H](O)CN1; Cbz = O=C(OCc1ccccc1)*

Assays:
[1] = molecular target: interleukin-1β converting enzyme (ICE), as used in the enzyme assays (UniProt P29466); experiment: ICE enzyme inhibition, UV-visible substrate Suc-YVAD-pNA
[2] = molecular target: interleukin-1β converting enzyme (ICE), as used in the enzyme assays (UniProt P29466); experiment: ICE enzyme inhibition, fluorescent substrate Ac-YVAD-AMC
[3] = molecular target: T1, interleukin-1β converting enzyme (ICE), as used in the enzyme assays (UniProt P29466 120-297; P29466 317-404, limits assumed); experiment: as above
T1 construct: also called IL-1β Converting Enzyme
T1 sequence (looked up) 1: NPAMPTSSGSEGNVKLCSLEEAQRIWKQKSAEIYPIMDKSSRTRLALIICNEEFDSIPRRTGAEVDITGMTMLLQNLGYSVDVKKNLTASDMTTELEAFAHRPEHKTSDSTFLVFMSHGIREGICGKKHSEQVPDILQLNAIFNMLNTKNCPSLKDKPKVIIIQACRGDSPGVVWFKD
T1 sequence (looked up) 2: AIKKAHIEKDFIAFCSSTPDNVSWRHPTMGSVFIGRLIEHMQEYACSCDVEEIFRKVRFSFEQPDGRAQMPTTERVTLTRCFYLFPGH
Procedure: This assay is run essentially according to Thornberry et al. (Nature 356: 768–774 (1992)), using substrate 17 referenced in that article. […] The following components are mixed:
Buffer and ICE are added to the wells. The components are left to incubate at 37° C for 15 minutes in a temperature-controlled wellplate. […] A linear fit of the data for each well is performed and a rate is determined in fluorescence units per second.

[4] = molecular target: T1, interleukin-1β converting enzyme (ICE), …; experiment: ICE enzyme inhibition, UV-visible substrate Suc-YVAD-pNA
Procedure: Synthesis of analogous substrates is described by L. A. Reiter (Int. J. Peptide Protein Res. 43, 87–96 (1994)). […] Buffer, ICE and DMSO (if inhibitor is present) are added to the wells in the order listed. The components are left to incubate at room temperature for 15 minutes starting at the time that all components are present in all wells. The microtiter plate reader is set to incubate at 37° C. After the 15 minute incubation, substrate is added directly to the wells and the reaction is monitored by following the release of the chromophore (pNA) at 405–603 nm at 37° C. for 20 minutes. A linear fit of the data is performed and the rate is calculated in mOD/min. DMSO is only present during experiments involving inhibitors, buffer is used to make up the volume to 100 µl in the other experiments.

[5] = molecular target: T2, interleukin-1β converting enzyme (ICE) in human peripheral blood mononuclear cells (human, UniProt P29466 1-404, limits assumed); experiment: cell-based or functional assay
T2 sequence (looked up): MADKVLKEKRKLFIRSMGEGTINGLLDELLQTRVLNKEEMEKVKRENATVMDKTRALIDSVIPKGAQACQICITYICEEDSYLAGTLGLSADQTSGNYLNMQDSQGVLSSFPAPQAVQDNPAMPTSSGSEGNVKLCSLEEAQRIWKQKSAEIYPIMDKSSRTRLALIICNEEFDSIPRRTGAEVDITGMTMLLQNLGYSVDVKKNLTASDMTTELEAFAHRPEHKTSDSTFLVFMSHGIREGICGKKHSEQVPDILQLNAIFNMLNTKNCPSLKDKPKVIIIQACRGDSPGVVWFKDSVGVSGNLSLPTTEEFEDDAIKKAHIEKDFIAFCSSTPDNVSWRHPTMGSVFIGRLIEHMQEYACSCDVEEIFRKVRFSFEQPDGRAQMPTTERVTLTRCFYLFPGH

[6] = molecular target: T2, interleukin-1β converting enzyme (ICE) …; experiment: cell-based or functional assay; remark: listed apart in the source
[7] = molecular target: T2, interleukin-1β converting enzyme (ICE) …; experiment: cell-based or functional assay; remark: listed apart in the source

Molecule: N-[2-(N-Acetyl-tyrosinyl-valinyl)-(S)-1,2,3,4-tetrahydroisoquinoline-3-carbonyl]-3-amino-oxobutanoic acid (peptide)
Ki [1]: 14 nM

B1: (3S) N-(N-Benzyloxycarbonyl-(S)-valinyl-(S)-alaninyl)-3-amino-4-(2-benzoxazolyl)-4-oxobutanoate (peptide)
peptide: Cbz-Val-Ala-Asp-{benzoxazol‑2‑yl ketone}
SMILES: CC(C)[C@H](NC(=O)OCc1ccccc1)C(=O)N[C@@H](C)C(=O)N[C@@H](CC(=O)O)C(=O)c1nc2ccccc2o1
Cell IC50 (µM): inhibitor concentration at which 50% of mature IL-1β is detected in the supernatant [5]: 4.1 µM | Ki [1]: 850 nM

Molecule: Ac-YV[Pro(4-phenoxy)][Asp‑al] (not fully specified (C-terminus)) [N-(N-Acetyl-tyrosinyl-valinyl-(4-phenoxyprolinyl))-3-amino-4-oxobutanoic acid]
Cell IC50 (µM): inhibitor concentration at which 50% of mature IL-1β is detected in the supernatant [7]: 2.6 µM | Ki [3]: 5.2 nM | Ki [4]: 7.2 nM

Molecule: Ac-YVAD-X3 (also: Asp-derived residue (R,S), also called 84b)
Cell IC50 (µM): inhibitor concentration at which 50% of mature IL-1β is detected in the supernatant [5]: 0.5 µM | Ki [4]: 19 nM

B2: (3S) N-(N-Acetyl-(S)-tyrosinyl-(S)-valinyl-(S)-alaninyl)-3-amino-4-(2-(7-methoxybenzoxazolyl))-4-oxobutanoate (peptide)
peptide: Ac-YVAD-X1
SMILES: COc1cccc2nc(C(=O)[C@H](CC(=O)O)NC(=O)[C@H](C)NC(=O)[C@@H](NC(=O)[C@H](Cc3ccc(O)cc3)NC(C)=O)C(C)C)oc12
notes: also called 69a
Cell IC50 (µM): inhibitor concentration at which 50% of mature IL-1β is detected in the supernatant [5]: 0.735 µM | Ki [4]: 11 nM

B3: (3S) t-Butyl N-(N-acetyl-(S)-tyrosinyl-(S)-valinyl-(S)-alaninyl)-3-amino-4-(2-(4-methoxybenzoxazolyl))-4-oxobutanoate (peptide)
peptide: Ac-YVAD-X2
SMILES: COc1cccc2oc(C(=O)[C@H](CC(=O)O)NC(=O)[C@H](C)NC(=O)[C@@H](NC(=O)[C@H](Cc3ccc(O)cc3)NC(C)=O)C(C)C)nc12
notes: The printed name begins with 't-Butyl', but the compound was made by the method for the acid 69a and its printed formula C31H37N5O10 is that of the free acid; also called 69b
Cell IC50 (µM): inhibitor concentration at which 50% of mature IL-1β is detected in the supernatant [5]: 0.745 µM | Ki [4]: 50 nM

Second part, the molecule after the results:

Ki [1]: 23 nM | Ki [2]: 4.7 nM
Molecule: N-(N-Acetyl-tyrosinyl-valinyl-pipecolyl)-3-amino-4-oxobutanoic acid (peptide)

Ki [3]: 3.9 nM | Ki [4]: 12 nM
Molecule: Ac-YV[Hyp][Asp‑al] (not fully specified (C-terminus)) [N-[N-Acetyl-tyrosinyl-valinyl-(4-hydroxyprolinyl)]-3-amino-4-oxobutanoic acid]

Cell IC50 (µM): inhibitor concentration at which 50% of mature IL-1β is detected in the supernatant [5]: 3.3 µM | Ki [1]: 100 nM
Molecule: Cbz-Val-Ala-Asp-X3 (also: Asp-derived residue (R,S))

Ki [3]: 2 nM | Ki [4]: 10 nM
Molecule: Ac-YV[Pro(4-benzyloxy)][Asp‑al] (not fully specified (C-terminus)) [N-[N-Acetyl-tyrosinyl-valinyl-(4-benzyloxy)prolinyl]-3-amino-4-oxobutanoic acid]

Cell IC50 (µM): inhibitor concentration at which 50% of mature IL-1β is detected in the supernatant [6]: 9.8 µM | Ki [4]: 3.5 nM
Molecule: Ac-YV[Pro(4R-allyloxy)][Asp‑al] (not fully specified (C-terminus), also called 85) [N-(N-Acetyl-tyrosinyl-valinyl-(4(R)-allyloxy prolinyl))-3(S)-amino-4-oxobutanoic acid]

Ki [4]: 18 nM
B4: N-Acetyl-(S)-tyrosinyl-(S)-valinyl-(S)-alaninyl-3(S)-amino-5-(2-chlorobenzyloxy)-4-oxo-pentanoic acid (peptide)
peptide: Ac-YVAD-X4
SMILES: CC(=O)N[C@@H](Cc1ccc(O)cc1)C(=O)N[C@H](C(=O)N[C@@H](C)C(=O)N[C@@H](CC(=O)O)C(=O)COCc1ccccc1Cl)C(C)C
notes: also called 89

Cell IC50 (µM): inhibitor concentration at which 50% of mature IL-1β is detected in the supernatant [6]: 4 µM | Ki [1]: 175 nM
Molecule: Ac-Val-Pro-Asp-X1 (not fully specified (residues 2, 3))
